Data: FireProtDB (doi:10.1093/protein/9.5.425)

Details: Escherichia coli (strain K12); pH 9; 50 °C; Thermal; DSC; Sodium tetraborate 1 mM; reversible: yes; whole UniProt chain shown

B1: Tryptophan synthase alpha chain wild type, P0A877 (protein)
chain: MERYESLFAQLKERKEGAFVPFVTLGDPGIEQSLKIIDTLIEAGADALELGIPFSDPLADGPTIQNATLRAFAAGVTPAQCFEMLALIRQKHPTIPIGLLMYANLVFNKGIDEFYAQCEKVGVDSVLVADVPVEESAPFRQAALRHNVAPIFICPPNADDDLLRQIASYGRGYTYLLSRAGVTGAENRAALPLNHLVAKLKEYNAAPPLQGFGISAPDQVKAAIDAGAAGAISGSAIVKIIEQHINEPEKMLAALKVFVQPMKAATRS
**Q.** With B1 as the protein, how does the “heat capacity change of unfolding” value read?
**A.** 4.81 kcal/mol/K

**Q.** What about the unfolding free energy of the same protein?
**A.** 1.17 kcal/mol
